From the supplement of paper PMC12042874
± gives the uncertainty stated by the source.

Assay: amyloid nucleation score (Sup35N fusion, yeast selection) (log enrichment); library NNK3; higher = more nucleation; inactive = no reads after selection
Procedure, shortened: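 Nucleation score is defined as the DiMSum log enrichment of output over input reads, with centring on the mode score of non-aggregating sequences. A minimum of 100 input reads was required for each sequence. Reads came from Illumina sequencing of plasmid inserts from psi-negative yeast expressing Sup35N fused to peptides of 20 random codons, induced with 100 μM copper sulfate for 24 hours and grown 7 days at 30°C on medium lacking adenine and uracil.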

Row | Substance | amyloid nucleation score
1 | TNQALTMNCHPG | inactive
2 | GFLTKCALWKIWF | inactive
3 | KIDLVGTLVMTIFNAQMQYE | 2.06 ± 0.083
4 | SLYRKGRHFGGCSCSIVRFR | 0.319 ± 0.78
5 | IINATVCHCM | 3.33 ± 0.077
6 | FAAARSYFKLFHIYCDDVTG | 1.96 ± 0.071
7 | ASSPLITRDDKAHGLEFHSY | inactive
8 | LQAHCSNFWVFYMAFGPIDF | 1.76 ± 0.095
9 | FCYEHSLWLCLSYKVTVMRM | 1.08 ± 0.15
10 | VLSVLFFLLLSPPIRFQVEG | inactive
11 | IIYRKVVKRCAWITDKEIPG | inactive
12 | TLSCTKVTP | inactive
13 | SAEVATFFNCKYHSSLSILT | inactive
14 | YLKGTMSDSKNGPYDRGKLT | inactive
15 | LNILVTC | inactive
16 | VYFGSINYRRGGGYGYHSVI | 0.027 ± 0.71
17 | MCTNMSRNQFITDIVLCDRS | inactive
18 | VGNLCVLKGTTIMFGIMGST | 1.18 ± 0.14
19 | QSYVSFYMQVLRSDRTDILR | inactive
20 | LFIWTDILTFLRS | inactive
21 | YSTNVSYY | inactive
22 | VQRSYWICQLPAGVSWSGI | inactive
23 | ASWPNYYWSNSLILFRDKCV | 0.019 ± 0.3

Row | Substance | amyloid nucleation score
24 | YHTARFGIKFLLRM | inactive
25 | LLSHYFHGMCMTHISGIFVM | inactive
26 | TYRSTLSVSMAVRGSEMLD | -0.085 ± 1
27 | ALSPHSNCIYNCLSCCCDTD | 0.655 ± 0.15
28 | TLGVRIHCGEFNLYDHSRVK | 0.875 ± 0.26
29 | YEVPFSNASWRDGQMRCRCS | inactive
30 | IIWREVINVAVYRVVAVTHK | inactive
31 | MSIDPHILVLVGEWLVCLKL | inactive
32 | SCFTEIEWS | inactive
33 | GWGPGARGGLEDRGDCVCFL | inactive
34 | WYNDVMEVESLISYVDFFRE | inactive
35 | RIRGMFGCPNNR | inactive
36 | TWQVVNSPYPMRNIPYRSRW | inactive
37 | TSTHCIIWLGRSDRRREMQL | -0.752 ± 1.9
38 | NYDFWVQTISECCELEFVM | inactive
39 | NSYEEWSKWHFSNWSGFSGC | inactive
40 | IYCPNIILLVKRHGVFQMFL | 2.3 ± 0.072
41 | LKNFIKWRGILPFFGTDFWM | inactive
42 | HVGAIMLLLLLTSERLMTLD | inactive
43 | RLYNKSVTLAWRRFSGTKEL | inactive
44 | TLLDVPRSRLWSKFWLCVQL | inactive
45 | LFGSF | inactive
46 | LMYTRGFLWGAWINACMSRG | 1.2 ± 0.15

Row | Substance | amyloid nucleation score
47 | MMSMNMNLSYCYGFMGSHYS | 1.47 ± 0.097
48 | INFNLVHRLEVFWRVI | inactive
49 | QMRYLFACFYT | inactive
50 | GYRRKNRHSWTDPGITALNK | inactive
51 | HGFFNLWWRARLHLAPLHHH | inactive
52 | SVGRQSLYDL | 0.285 ± 0.24
53 | TGHWNSDWFLI | inactive
54 | LAPRSMGIATSSHGSSNVIG | -0.387 ± 0.88
55 | GRSWVLV | inactive
56 | VSLRQVS | inactive
57 | YNCRVAVRWYS | inactive
58 | KHRYAYGRRTNCWASHYLRG | inactive
59 | RSSSCVLFTAGTQNNRVFVV | inactive
60 | HIWAHAFISLVLWLSPLSVS | inactive
61 | FGMSQKSSRGWGLNV | inactive
62 | VITVSVTHNNANFFQMTDGM | 2.88 ± 0.055
63 | IRVIISGVLGTELKNALAKY | inactive
64 | SVAVRWKAYVMVLSEHSPRG | inactive
65 | LRKRRGPK | inactive
66 | LPICDQTIWFLPSRAVAGNV | inactive
67 | IGGRKALAALSVYHNVMRCL | inactive
68 | FYKAFIL | inactive
69 | DDSMHDGLRVTRRVCKRGSF | inactive

Row | Substance | amyloid nucleation score
70 | AMQIYTLVMGSPRDFDYWKV | 1.14 ± 0.11
71 | ADCPCYVTGCWLSYWMLYI | inactive
72 | WAGESLS | inactive
73 | AVFSKGISCGLH | -0.434 ± 1.1
74 | AVWRYSVSYTLYHSSGLLES | inactive
75 | PCSSLHCYMWYYVGANCHNL | inactive
76 | FFIDQLKEFSHY | inactive
77 | YIVWCHVVWLADCR | inactive
78 | DEEQF | -0.143 ± 0.34
79 | MSRMMSLNMECTSGMPESQV | inactive
80 | LYWATGLGVNFKFNLCLDDA | inactive
81 | YSVWVGLCVYSDGYRYNMPE | 2.06 ± 0.062
82 | FSNDFFCLCPS | inactive
83 | HVFIEFGKL | -0.259 ± 0.42
84 | YFLKDKPVNRMIQ | 1.75 ± 0.083
85 | KIICRAWYMSVGERRA | -0.449 ± 1.4
86 | CVFIFLKSCKYKVVKGINGV | inactive
87 | AWTGGSLGLTNI | inactive
88 | HSSSYCSSYKERSIPWSW | 0.93 ± 0.12
89 | LCWVNQVREMGRWNTGVQSG | inactive
90 | KLTFNRLLKT | inactive
91 | GLLVWQCMWGLDKKYLHSVY | inactive
92 | CELGDSGVIDDKIICVCYYL | inactive

Row | Substance | amyloid nucleation score
93 | RMNCQFTGMSTFRPPLLGAR | inactive
94 | AVSLCSDLYFVFGKWFGCEL | 1.11 ± 0.11
95 | VTTSMCAIQD | inactive
96 | WEDMVDNHE | 1.32 ± 0.087
97 | IYNPRSNINQFPDTFEPDQM | inactive
98 | NVADALS | inactive
99 | GSHICGALSSRDLFSGVLRI | inactive
100 | SEIRGNRNMTTEAPT | inactive
101 | DFILVSLLREDTNVGTACRV | inactive
102 | SDRYDCRDGSCFNRKVRYSL | inactive
103 | LPTSQA | inactive
104 | YTRDRQV | inactive
105 | SWLCPFNGA | inactive
106 | WTKECISIGRTWIYRRVGRG | 0 ± 0.59
107 | RLSLDRRNVRPDDMVHASGG | inactive
108 | EFMSSVGIYMEIDCTLGVCD | inactive
109 | YSPDMRGMFIGGPDSVPLEG | inactive
110 | SKCEMMRTLEESDDVSFVVK | inactive
111 | VHFSVMVGKKDDPSLF | inactive
112 | PSVHCMWCPRQPDVFPRWIV | inactive
113 | FFVKYVLEKCAWKY | inactive
114 | AMDRTNNIEDEQWIMNKYWV | inactive
115 | YDLTFVGWMDYCNLPMVRLI | inactive

Row | Substance | amyloid nucleation score
116 | LFSSFTSPLRMRWLDRSYHF | inactive
117 | FCEDSRMSYKFYVSCIFAHS | 0.636 ± 0.14
118 | FHVTVFWNRHNSDLMVLHR | inactive
119 | CKEHLHQLFMGRCSTV | inactive
120 | WPIATTMSKGVCVRRVRGRD | -0.411 ± 0.69
121 | YWVGEWLMCPYTR | inactive
122 | QSLSNKVMLLSGRVNQVDVA | -0.935 ± 1.5
123 | FCSLIKYSQNYYNPLAHTVL | inactive
124 | LCGYGSGKTISG | inactive
125 | KLYIALMDKYPGATSMFQPV | 1.18 ± 0.23
126 | FSCMTADSNSGIVRVR | inactive
127 | FTWIFRFMPIWHACDKRVFE | 1.71 ± 0.088
128 | PLQDL | inactive
129 | WCDLRFISWSFSVFWCV | inactive
130 | CQCMSFIRTNSYKDFT | inactive
131 | FRSAN | inactive
132 | RGFNYKMLFSSDLD | inactive
133 | MGHHRCYVRVSKKDYWF | inactive
134 | WYVYTNIRNVSYDIFDNKKF | 1.49 ± 0.11
135 | NLSRLKRFYIANSR | inactive
136 | LDERCLLVGMAYMLVCY | inactive
137 | ATIYICGLNPNRVAACIVLE | inactive
138 | GHMTVSTWWNIVYMAKGYRV | -0.425 ± 0.8

Row | Substance | amyloid nucleation score
139 | SVGMFSVESLVLVKLRLWNL | inactive
140 | GREFRICNSFVWVSVFIFCG | inactive
141 | VNYSLLRVNMFKYGSSYPIP | inactive
142 | AEARTPIECVC | inactive
143 | SGIYTMVWAFGFDVLYLLVS | inactive
144 | SRVILL | inactive
145 | GDSGPDKKWHFTKY | inactive
146 | LARLCCLSVSFSKLLIVFTI | inactive
147 | KMKCRVIYVLSSLIYCM | inactive
148 | FNCGPCIVLEWYFTSVAGQG | 2.1 ± 0.071
149 | IHRMMAYDFCRNLYFSEQWG | inactive
150 | YLGESWTVPALYVRSDMMFV | inactive
151 | YSQFCYIVHLVIGMVDSRRC | inactive
152 | SKKSRSLNWFLLVNRTPDAG | inactive
153 | FFSDTYSNTSPM | inactive
154 | TDMHGFNNIS | inactive
155 | MNGMICISNCFKDGHVTLNK | 1.26 ± 0.16
156 | YSNVNALISSTSLYLCCCML | 0.644 ± 0.23
157 | ALFSFDNSNYMVSNGAIGRV | -0.167 ± 0.75
158 | TIYFF | 1.27 ± 0.11
159 | EGNYAYAVVSHAHFEV | inactive
160 | NFSVTYEFFGQSI | 0.292 ± 0.32
